Results reported in patent publication US20120230990A1 (MERCK SERONO, published 2012).

Columns and labels:
[1] = biological target: T1, mouse IL-22RA-ECD (mouse, UniProt Q80XZ4 16-230); test: KinExA and Biacore, IL-22RA-ECD with 6 His tag
T1 construct: extracellular domain; Produced in HEK-293 cells and NiNTA-purified; not shown: 6 His tag
T1 sequence (looked up): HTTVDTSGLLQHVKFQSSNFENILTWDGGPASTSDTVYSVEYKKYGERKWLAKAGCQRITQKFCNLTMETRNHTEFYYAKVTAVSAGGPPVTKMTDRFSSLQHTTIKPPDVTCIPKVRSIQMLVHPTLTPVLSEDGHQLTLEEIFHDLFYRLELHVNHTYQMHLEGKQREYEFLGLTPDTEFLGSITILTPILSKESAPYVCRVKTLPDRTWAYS

[2] = biological target: T2, rat IL-22RA-ECD (rat); test: Biacore, IL-22RA-ECD with 6 His tag
T2 construct: extracellular domain; Produced in HEK-293 cells and NiNTA-purified

[3] = biological target: T3, human IL-22RA-ECD (IL-22RA-Extra Cellular Domain) (human, UniProt Q8N6P7 16-228); test: Biacore, IL-22RA-ECD with 6 His tag
T3 construct: also called human IL-22RA extracellular domain; hIL-22RA coated on the plates; not shown: 6 His tag
T3 sequence: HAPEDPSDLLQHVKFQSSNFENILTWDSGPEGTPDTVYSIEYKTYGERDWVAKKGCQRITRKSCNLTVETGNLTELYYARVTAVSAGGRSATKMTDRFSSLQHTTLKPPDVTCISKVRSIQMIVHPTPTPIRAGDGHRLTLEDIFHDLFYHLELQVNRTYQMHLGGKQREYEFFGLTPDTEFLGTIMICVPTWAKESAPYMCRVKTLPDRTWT

[4] = biological target: T4, marmoset monkey IL-22RA-ECD (marmoset monkey); test: Biacore, IL-22RA-ECD with 6 His tag
T4 construct: extracellular domain; Produced in HEK-293 cells and NiNTA-purified

[5] = biological target: T5, dog IL-22RA-ECD (dog); test: Biacore, IL-22RA-ECD with 6 His tag
T5 construct: extracellular domain; Produced in HEK-293 cells and NiNTA-purified

[6] = biological target: T1, mouse IL-22RA-ECD; test: Biacore, IL-22RA-ECD with 6 His tag
[7] = biological target: T6, human IL-20 receptor alpha (human, UniProt Q9UHF4 30-250, limits assumed); test: competitive ELISA: biotinylated 280-346-TSY on plate-coated human IL-22RA-ECD, soluble competitor titrated, peroxidase-conjugated streptavidin, OD 450nm
T6 construct: also called hIL-20R; IL-20R alpha
T6 sequence (looked up): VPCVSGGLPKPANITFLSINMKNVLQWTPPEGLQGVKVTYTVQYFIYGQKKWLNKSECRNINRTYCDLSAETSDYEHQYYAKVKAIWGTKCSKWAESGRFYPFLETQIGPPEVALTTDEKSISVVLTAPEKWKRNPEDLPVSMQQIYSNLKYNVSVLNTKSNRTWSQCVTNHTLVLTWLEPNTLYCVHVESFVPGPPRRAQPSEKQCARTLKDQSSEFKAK
Experimental: (§1) FIG. 23 reports the results of a competitive ELISA done to measure the specificity of 280.346.TSY to human IL-22RA. Microtiter plates were coated with human IL-22RA-ECD (i.e. IL-22RA-Extra Cellular Domain). Biotinylated 280-346-TSY antibody was added to the plate in the presence of competitors: human interleukin 22 receptor alpha (hIL-22RA), human IL-22 binding protein (hIL-22BP), murine IL-22 receptor alpha (mIL-22RA), human IL-10 receptor alpha (hIL-10R) and human IL-20 receptor alpha (hIL-20R).
(§2) Specificity and binding affinity of 280.346.TSY was determined using a competitive ELISA. Microtiter plates were coated with human IL-22RA-ECD (i.e. IL-22RA-Extra Cellular Domain). Biotinylated 280-346-TSY antibody was added to the plate in the presence of competitors: human interleukin 22 receptor alpha (hIL-22RA), human IL-22 binding protein (hIL-22BP), mouse IL-22 receptor alpha (mIL-22RA), human IL-10 receptor alpha (hIL-10R) and human IL-20 receptor alpha (hIL-20R).

[8] = biological target: T7, human IL-10 receptor alpha (human, UniProt Q13651 22-235, limits assumed); test: as above
T7 construct: also called hIL-10R; IL-10R alpha
T7 sequence (looked up): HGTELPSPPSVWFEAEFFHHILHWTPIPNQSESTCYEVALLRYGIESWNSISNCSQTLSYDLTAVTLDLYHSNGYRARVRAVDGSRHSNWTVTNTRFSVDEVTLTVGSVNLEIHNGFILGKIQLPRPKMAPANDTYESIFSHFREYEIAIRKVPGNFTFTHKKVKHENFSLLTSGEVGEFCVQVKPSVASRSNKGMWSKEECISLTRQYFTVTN
Experimental: as §1, §2

[9] = biological target: T8, human IL-22 binding protein (human, UniProt Q969J5-2 22-231, limits assumed); test: as above
T8 construct: also called hIL-22BP; IL-22BP
T8 sequence (looked up): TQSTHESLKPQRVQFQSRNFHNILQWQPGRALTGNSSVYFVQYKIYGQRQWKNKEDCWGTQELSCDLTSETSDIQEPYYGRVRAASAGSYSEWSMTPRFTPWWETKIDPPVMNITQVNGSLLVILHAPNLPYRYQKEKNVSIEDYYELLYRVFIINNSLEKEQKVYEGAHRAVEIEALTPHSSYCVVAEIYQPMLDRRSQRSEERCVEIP
Experimental: as §1, §2

B1: 280.346.TSY (humanized anti-human IL-22RA antibody comprising 280.VH3-66-46 paired with 280.VK4-1-TSY, human IgG1/kappa) (antibody, V domains shown)
VH: EVQLVESGGGLVQPGGSLRLSCAASGYSITAEYMNWVRQAPGKGLEWIGEINPSTGTTTYNQKFKGRFTISVDQSKNTAYLQMNSLRAEDTAVYYCARFDAYFDYWGQGTLVTVSS
VL: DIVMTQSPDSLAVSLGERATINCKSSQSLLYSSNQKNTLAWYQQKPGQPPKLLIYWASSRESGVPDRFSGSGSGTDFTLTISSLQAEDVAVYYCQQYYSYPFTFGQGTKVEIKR
notes: Produced in CHO cells; also called 280.VH3-66-46/VK4-1-TSY; 280.VH3-66.46 paired with 280.IGKV4-1-TSY
fold lower affinity compared to human IL-22RA [1]: ~100 fold
Kd [2]: ~1000 nM
Kd [3]: ~0.15 nM
Kd [4]: 0.4 nM
Kd [5]: 100 nM
Kd [6]: ~20 nM
binding result [7]: no binding
binding result [8]: no binding
binding result [9]: no binding
